Measured values: patent publication US12397036B2, “Peptide exchange protein” (Cambridge Enterprise Limited, priority 2018, dated 2025)

Columns and labels:
[1] = biological target: T1, surface MHC class I molecules (HLA-A*68:02) on HeLaM cells (Homo sapiens, UniProt P04439, A269V/D140Y/D185E/E176V/E277Q/E87N/F33Y/G231S/I121R/I166T/I218V/L180W/L300P/L318F/N151K/P208A/P217A/Q86R/R138H/R169H/S129P/T345S/V36M); test: Binding of exogenous soluble TAPBPR to cells (PeTe-4 staining); conditions: 100 nM, 15 min, 37° C.
T1 construct: HLA-A68 (MHC class I) expressed on HeLa; endogenous in cells; host or cells: HeLaM and derivatives (TAPBPR-KO with or without TAPBPR/tapasin constructs, +Her2, Her2-KO, +PDL1, pD-GFP); in some arms HeLaM-HLA-ABC-KO re-expressing HLA-A*68:02
Experimental: (§1) (g) Dose response curves of IFN-γ treated HeLaM and HeLaM-HLA-ABC^KO cells treated −/+100 nM TAPBPR with increasing concentrations of ETVSK*QSNV for 15 min at 37° C. Line graphs show MFI−/+s.e.m from three independent experiments. […] (h) Histograms of the typical fluorescent peptide binding observed using flow cytometry. (i) Bar graphs showing the MFI of fluorescent peptide binding to HeLaM HLA-ABC^KO+A2−/+s.e.m from two independent experiments with duplicates. ***P≤0.001, ****P≤0.0001, n/s not significant, using unpaired two-tailed t-test.
(§2) Following trypsinisation, cells were washed in 1% bovine serum albumin (BSA), dissolved in 1×PBS at 4° C. and then stained for 30 min at 4° C. in 1% BSA containing one of the following antibodies: W6/32, pete4, pasta-1, anti-HLA-A68-reactive mAb, BB7.2 or with an isotype control antibody. After washing the cells to remove excess unbound antibody, the primary antibodies bound to the cells were detected by incubation at 4° C. for 25 min with either goat anti-mouse Alexa-Fluor 647 IgG (Invitrogen Molecular Probes, Thermo Fisher Scientific) or with Alexa-Fluor 647-conjugated streptavidin (Invitrogen Molecular Probes, Thermo Fisher […]

[2] = system: surface MHC class I molecules (HLA-A*68:02) on HeLaM cells; test: as above; set-up: species or system human; conditions: cells lacking classical MHC class I expression
Experimental: as §1, §2

HLA-A*68:02 = biological target: T2, HLA-A*68:02 (Homo sapiens, UniProt P04439, A269V/D140Y/D185E/E176V/E277Q/E87N/F33Y/G231S/I121R/I166T/I218V/L180W/L300P/L318F/N151K/P208A/P217A/Q86R/R138H/R169H/S129P/T345S/V36M); test: Fluorescent peptide binding to HeLaM cells treated with exogenous soluble TAPBPR; assay type: cell-based
T2 construct: HLA-A68 (MHC class I) expressed on HeLa; endogenous in cells; host or cells: HeLaM and derivatives (TAPBPR-KO with or without TAPBPR/tapasin constructs, +Her2, Her2-KO, +PDL1, pD-GFP); in some arms HeLaM-HLA-ABC-KO re-expressing HLA-A*68:02
Experimental: Target cell lines were seeded at 25,000-30,000 cells/well in 12-well plates and stimulated with IFN-γ. Following the stimulation period, the cells were washed 3 times with 1×PBS and incubated with 300 μL pre-warmed opti-MEM (Thermo Fisher Scientific, UK). In case the peptide binding was done in the presence of recombinant TAPBPR, the cells were then treated with or without recombinant TAPBPR (100 nM for HLA-A*68:02 or 1 μM for HLA-A*02:01). After 15 min, the desired TAMRA-labelled peptide was added to the cells and incubated at 37° C. (15 min for HLA-A*68:02 or 60 min for HLA-A*02:01). In case the peptide binding was facilitated by over-expressed TAPBPR, the labelled peptide was directly added to the cells, without using recombinant TAPBPR. Following the peptide treatment, the cells were washed three times in 1×PBS and harvested. The level of bound peptide/cell was determined by flow cytometry, using the YelFL1 channel (Cytek).
We next asked whether the exogenous TAPBPR bound to surface MHC class I molecules was capable of peptide exchange similarly to the membrane anchored version. Following incubation of cells for 15 min at 37° C. in the presence or absence of 100 nM exogenous TAPBPR, cells were treated with or without 10 nM fluorescent peptide for an additional 15 mins.

H-2K^b expressed on EL4 = biological target: T3, H-2K^b expressed on EL4 (Mus musculus, UniProt P01901); test: […] loading on EL4 cells (SIINFEK*L and 25-D1.16 mAb); assay type: cell-based, murine; conditions: 1 μM TAPBPR, 1 nM peptide 30 min
T3 construct: surface expressed H-2K^b are relatively more peptide receptive compared to human MHC I molecules; endogenous in cells; host or cells: EL4 (murine tumour cell line)
T3 sequence (P01901 22-369): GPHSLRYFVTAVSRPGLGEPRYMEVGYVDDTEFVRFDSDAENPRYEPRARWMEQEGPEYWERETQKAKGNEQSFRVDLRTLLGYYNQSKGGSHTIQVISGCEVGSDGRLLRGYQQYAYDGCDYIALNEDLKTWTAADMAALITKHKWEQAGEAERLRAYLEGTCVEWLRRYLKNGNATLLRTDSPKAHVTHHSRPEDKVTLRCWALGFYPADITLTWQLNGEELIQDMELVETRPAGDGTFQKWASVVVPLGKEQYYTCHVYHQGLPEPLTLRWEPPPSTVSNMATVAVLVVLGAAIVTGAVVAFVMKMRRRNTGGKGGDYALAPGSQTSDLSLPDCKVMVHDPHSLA
T3 sequence (P01887 21-119 partner): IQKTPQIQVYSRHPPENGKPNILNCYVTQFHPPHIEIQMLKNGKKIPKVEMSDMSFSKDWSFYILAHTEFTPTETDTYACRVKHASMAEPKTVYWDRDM
Experimental: Histograms are representative of three independent experiments. (19d) Bar graphs show the MFI of 25-D1.16−/+SD from three independent experiments. (19e) OT1 killing of EL4 cells treated −/+1 μM soluble TAPBPR^WT or TAPBPR^TN5, followed by incubation with 1 nM […] peptide. Error bars−/+s.e.m from triplicate wells. Data is representative of three independent experiments. Note: surface expressed H-2K^b are relatively more peptide receptive compared to human MHC I molecules. […] As OT1 T cells are highly efficient cytotoxic cells, killing 80-100% of targets after 1-4 hours, we decreased the concentration of […] used in these experiments to 1 nM in order to differentiate between TAPBPR-mediated and background peptide binding, otherwise we would not observe an additive effect of soluble TAPBPR on target cell killing.

B1: soluble TAPBPR^WT: secreted His-tagged luminal domain of human TAPBPR, lacking transmembrane domain and cytoplasmic tail; SEQ ID NO: 2 (protein)
chain: KPHPAEGQWRAVDVVLDCFLVKDGAHRGALASSEDRARASLVLKQVPVLDDGSLEDFTDFQGGTLAQDDPPIIFEASVDLVQIPQAEALLHADCSGKEVTCEISRYFLQMTETTVKTAAWFMANVQVSGGGPSISLVMKTPRVAKNEVLWHPTLNLPLSPQGTVRTAVEFQVMTQTQSLSFLLGSSASLDCGFSMAPGLDLISVEWRLQHKGRGQLVYSWTAGQGQAVRKGATLEPAQLGMARDASLTLPGLTIQDEGTYICQITTSLYRAQQIIQLNIQASPKVRLSLANEALLPTLICDIAGYYPLDVVVTWTREELGGSPAQVSGASFSSLRQSVAGTYSISSSLTAEPGSAGATYTCQVTHISLEEPLGASTQVVPPERR
modifications: His tag; TAPBPR luminal domain (mature sequence without 21 aa leader sequence)
binding of exogenous TAPBPR to HeLaM cells [1]: clearly detectable on the cell surface
binding of exogenous TAPBPR to HeLaM-HLA-ABC^KO cells [2]: could no longer bind
binding of exogenous fluorescent peptides ETVSK*QSNV and YVVPKVAK*V to HeLaM (HLA-A*68:02; 100 nM exogenous TAPBPR 15 min, then 10 nM peptide 15 min): significant enhancement in the binding of exogenous fluorescent peptides
exogenous peptide binding over increasing ETVSK*QSNV concentrations (HLA-A*68:02; -/+100 nM TAPBPR, 15 min): enhanced exogenous peptide binding to cells over a wide range of peptide concentrations
loading of SIINFEKL onto H-2K^b (H-2K^b expressed on EL4): significantly enhanced the loading of SIINFEKL
